Sequences and labels used below:
B1: CrcA (PA1677), His-tag removed (natural protein)
chain: MPHPLTLLQISGRGYPPAPLRQSTLLIIDAQEEYRSGALRLPGLDAAAAEIGVLVQAARASGTPIVHVRHLGIQGGLFDPQGPRGQFLPELQPEAGEKVVEKRLPNAFSGTELHDLLQNHGRLDLIVCGFMTHSSVSTTVRAAKDYGYRCTLADSACATRDIPTLNGGVLSAADLQRAEIAALGDNFAAIVAQARELL
B2: Crc (catabolite repression control protein), His-tag removed (natural protein)
chain: MRIISVNVNGIQAAAERGLLSWLQAQNADVICLQDTRASAFDLDDPSFQLDGYFLYACDAELPEQGGVALYSRLQPKAVISGLGFETADRYGRYLQADFDKVSIATLLLPSGQSGDESLNQKFKFMDDFTHYLSKQRRKRREYIYCGSLYVAHQKMDVKNWRECQQMPGFLAPERAWLDEVFGNLGYADALREVSREGDQFSWWPDSEQAEMLNLGWRFDYQVLTPGLRRFVRNAKLPRQPRFSQHAPLIVDYDWQLSI

Experiment [1] deals with B1. The experiment is described as follows: grating-coupled interferometry; CrcA immobilised (9.5 ng/mm^2); Crc 20 μM to 156.25 nM; ES-buffer, 25°C; equilibration curve analysis.
In experiment [2] the target is B1. Kind of experiment: grating-coupled interferometry; CrcA immobilised by amine coupling (9.5 ng/mm^2); Crc 20 μM to 156.25 nM; ES-buffer, 25°C; heterogeneous ligand model.
Experiment [3] deals with Strep-CrcA (Strep-PA1677; catabolite repression control protein antagonist) (Pseudomonas aeruginosa PAO1). Kind of experiment: SEC-MALS; Strep-CrcA; experimental mass compared with the expected mass of a dimer.
The target of experiment [4] is B2. Kind of experiment: immobilized CrcA; kd1 heterogeneous ligand.
Experiment [5] addresses B2. Kind of experiment: immobilized CrcA; kd2 heterogeneous ligand, second site.
Experiment [6] has as its target B2. Kind of experiment: immobilized CrcA; KD2 heterogeneous ligand, second site.
The target in experiment [7] is Crc (catabolite repression control protein), His-tag removed (Pseudomonas aeruginosa PAO1) (UniProt Q51380). Kind of experiment: grating-coupled interferometry; Crc immobilised (15 pg/mm^2); CrcA 20 μM to 156.25 nM; ES-buffer, 25°C; equilibration curve analysis.
Experiment [8] shares this target. Kind of experiment: grating-coupled interferometry; Crc immobilised by amine coupling (15 pg/mm^2); CrcA 20 μM to 156.25 nM; ES-buffer, 25°C; 1:1 kinetic fit.
Experiment [9] has as its target B1. Kind of experiment: immobilized Crc.
The target of experiment [10] is T1, PAO1 Hfq protein, purified (Pseudomonas aeruginosa PAO1, UniProt Q9HUM0 1-82).
T1 chain: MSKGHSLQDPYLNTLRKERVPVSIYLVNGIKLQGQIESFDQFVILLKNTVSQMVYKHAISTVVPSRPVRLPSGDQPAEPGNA
Kind of experiment: Hfq in complex with amiE6ARN RNA; kd1 heterogeneous ligand.

The target of experiment [11] is T1, PAO1 Hfq protein, purified. The experiment is described as follows: Hfq in complex with amiE6ARN RNA; KD1 heterogeneous ligand.
Experiment [12] has as its target T1, PAO1 Hfq protein, purified. The experiment is described as follows: Hfq in complex with amiE6ARN RNA; kd2 heterogeneous ligand, second site.

In general, Kd refers to the equilibrium constant for the complex coming apart. A lower Kd goes with tighter binding. Molecule “Crc (catabolite repression control protein), His-tag removed (from UniProt Q51380 1-259) (natural protein)” displayed a Kd in experiment [1] of 7.14 µM. In [2], the KD1 was 8.35 µM.
The term stoichiometry N denotes the number of molecules, sites or subunits per partner or assembly. Molecule “Strep-CrcA (Strep-PA1677; catabolite repression control protein antagonist) (natural protein)” returned a stoichiometry N in experiment [3] of 2.
As a reminder, the koff is the first-order rate constant of dissociation. For the molecule B1, the koff stood at 0.653 s⁻¹ in [4] and 0.0454 s⁻¹ in [5]. The Kd amounted to 3.93 µM in experiment [6], 12 µM in experiment [7] and 11 µM in experiment [8].
As to B2, the koff in experiment [9] is 2.45 s⁻¹; in experiment [10], 0.374 s⁻¹; in [12], 0.00786 s⁻¹. The molecule also came in with a dissociation constant Kd in experiment [11] of 0.402 µM.

These data come from publication PMC10213629 (2023).
